Measurements: patent US20240117011A1

Legend:
[1] = biological target: full-length spike B.1.617.2 (SARS-CoV-2) (UniProt P0DTC2); experiment: cell-based or functional assay
[2] = biological target: spike of variant P.1 v1 on pseudovirus; experiment: cell-based or functional assay

For LY-CoV555 (antibody), the pseudotyped virus neutralization [1] was > 10000 ng/mL and the neutralization IC50 [2] was > 10 µg/mL.
With REGN10987 (antibody) the neutralization, fold reduction in activity [1] was 4 fold.
In the case of CB6 (antibody), the neutralization IC50 [2] is reported as > 10 µg/mL.
